For 5 molecules, Kd results are on record in article PMC10279719 (2023).

What is called Kd is the constant that tells how readily two partners part at equilibrium. A low value points to higher affinity.

What all share (assay): SPR
For orientation: SPR reads the build-up and loss of mass on a sensor chip optically.

For assay [1], the target named is T1, PEAK3^FL from insect cells, phosphorylated by Src (human, UniProt Q6ZS72 1-473, phosphotyrosine at 24 (by Src in vitro, MS/MS); phosphoserine at 69; biotin (EZ-Link NHS-PEG4-Biotin)).
T1 chain: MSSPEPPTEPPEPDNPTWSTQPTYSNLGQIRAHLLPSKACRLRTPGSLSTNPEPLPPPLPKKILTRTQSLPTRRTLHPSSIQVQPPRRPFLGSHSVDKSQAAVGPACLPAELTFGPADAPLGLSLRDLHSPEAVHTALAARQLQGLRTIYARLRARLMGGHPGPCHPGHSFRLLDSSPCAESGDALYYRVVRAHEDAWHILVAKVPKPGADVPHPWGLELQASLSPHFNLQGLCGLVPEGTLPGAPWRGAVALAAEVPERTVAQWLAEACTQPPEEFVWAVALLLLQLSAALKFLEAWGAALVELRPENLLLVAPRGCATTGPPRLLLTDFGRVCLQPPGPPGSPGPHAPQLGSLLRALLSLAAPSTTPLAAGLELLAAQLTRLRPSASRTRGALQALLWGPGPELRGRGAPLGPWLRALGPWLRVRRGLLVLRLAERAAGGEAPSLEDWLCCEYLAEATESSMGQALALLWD

The target of assay [2] is T2, PEAK2^IDR1 (human PEAK2 residues 802–1406) (human, UniProt Q86YV5 802-1406, phosphorylated at the tandem site 14-3-3 motif (RAA(pS)SP) as purified from insect cells; biotin (EZ-Link NHS-PEG4-Biotin) where immobilised for SPR).
T2 chain: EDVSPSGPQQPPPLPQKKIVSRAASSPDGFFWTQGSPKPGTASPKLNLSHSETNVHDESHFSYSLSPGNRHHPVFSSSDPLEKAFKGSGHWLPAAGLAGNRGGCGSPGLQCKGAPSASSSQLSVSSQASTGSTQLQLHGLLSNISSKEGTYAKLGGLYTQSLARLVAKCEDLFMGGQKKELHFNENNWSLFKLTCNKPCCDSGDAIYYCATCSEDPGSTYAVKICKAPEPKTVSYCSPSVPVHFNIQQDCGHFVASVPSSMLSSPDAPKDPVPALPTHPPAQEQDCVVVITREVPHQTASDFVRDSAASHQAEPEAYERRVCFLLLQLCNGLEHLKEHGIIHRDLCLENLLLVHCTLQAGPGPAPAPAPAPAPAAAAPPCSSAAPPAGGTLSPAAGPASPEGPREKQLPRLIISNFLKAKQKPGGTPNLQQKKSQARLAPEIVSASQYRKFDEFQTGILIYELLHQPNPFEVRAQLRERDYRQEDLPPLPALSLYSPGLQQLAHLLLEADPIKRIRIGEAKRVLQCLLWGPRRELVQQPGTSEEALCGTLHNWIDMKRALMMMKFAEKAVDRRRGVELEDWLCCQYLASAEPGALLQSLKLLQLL

The target in assay [3] is T3, full length PEAK3 from insect cells (PEAK3^FL, S69 phosphorylated) (human, UniProt Q6ZS72 1-473, phosphoserine at 69; biotin (EZ-Link NHS-PEG4-Biotin) where immobilised for SPR).
T3 chain: T1 chain

The target in assay [4] is T4, PEAK2^IDR1 phosphorylated by Src (human, UniProt Q86YV5 802-1406, treated with Src kinase in vitro, sites not stated; phosphorylated at the tandem site 14-3-3 motif (RAA(pS)SP) as purified; biotin (EZ-Link NHS-PEG4-Biotin)).
T4 chain: T2 chain

Assay [5] concerns the target T5, PEAK1^IDR1 phosphorylated by Src (human, UniProt Q9H792 1082-1746, phosphotyrosine at 1107 (by Src in vitro, MS/MS); biotin (EZ-Link NHS-PEG4-Biotin)).
T5 chain: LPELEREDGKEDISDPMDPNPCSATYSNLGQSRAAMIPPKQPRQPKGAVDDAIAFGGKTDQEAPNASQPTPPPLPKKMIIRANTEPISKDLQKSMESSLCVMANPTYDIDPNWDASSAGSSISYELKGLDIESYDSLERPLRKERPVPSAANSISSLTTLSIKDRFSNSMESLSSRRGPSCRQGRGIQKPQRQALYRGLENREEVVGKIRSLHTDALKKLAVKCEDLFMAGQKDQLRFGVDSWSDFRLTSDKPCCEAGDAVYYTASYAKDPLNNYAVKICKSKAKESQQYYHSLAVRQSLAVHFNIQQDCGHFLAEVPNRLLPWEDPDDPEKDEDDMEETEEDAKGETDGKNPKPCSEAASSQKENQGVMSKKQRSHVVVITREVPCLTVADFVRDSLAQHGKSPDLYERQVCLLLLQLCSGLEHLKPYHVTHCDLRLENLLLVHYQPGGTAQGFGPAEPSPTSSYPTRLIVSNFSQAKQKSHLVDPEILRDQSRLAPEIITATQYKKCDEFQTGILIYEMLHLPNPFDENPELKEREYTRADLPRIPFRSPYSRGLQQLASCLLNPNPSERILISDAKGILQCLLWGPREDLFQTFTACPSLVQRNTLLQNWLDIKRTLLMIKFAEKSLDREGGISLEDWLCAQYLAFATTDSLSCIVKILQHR

B1: 14-3-3γ (natural protein)
chain: MVDREQLVQKARLAEQAERYDDMAAAMKNVTELNEPLSNEERNLLSVAYKNVVGARRSSWRVISSIEQKTSADGNEKKIEMVRAYREKIEKELEAVCQDVLSLLDNYLIKNCSETQYESKVFYLKMKGDYYRYLAEVATGEKRATVVESSEKAYSEAHEISKEHMQPTHPIRLGLALNYSVFYYEIQNAPEQACHLAKTAFDDAIAELDTLNEDSYKDSTLIMQLLRDNLTLWTSDQQDDDGGEGNN
As to B1, in assay [1], the equilibrium dissociation constant (Kd) is under 1 µM.

B2: CrkII NSH3 domain (CrkII^NSH3, residues 134–191) (domain or fragment)
chain: AEYVRALFDFNGNDEEDLPFKKGDILRIRDKPEEQWWNAEDSEGKRGMIPVPYVEKYR
Regarding B2, the dissociation constant Kd in assay [2] came out at 4.8 µM; in assay [3], 3.9 µM; in assay [1], 6.8 µM.

B3: full length CrkII, monomer (CrkII^FL monomer) (natural protein)
chain: MAGNFDSEERSSWYWGRLSRQEAVALLQGQRHGVFLVRDSSTSPGDYVLSVSENSRVSHYIINSSGPRPPVPPSPAQPPPGVSPSRLRIGDQEFDSLPALLEFYKIHYLDTTTLIEPVSRSRQGSGVILRQEEAEYVRALFDFNGNDEEDLPFKKGDILRIRDKPEEQWWNAEDSEGKRGMIPVPYVEKYRPASASVSALIGGNQEGSHPQPLGGPEPGPYAQPSVNTPLPNLQNGPIYARVIQKRVPNAYDKTALALEVGELVKVTKINVSGQWEGECNGKRGHFPFTHVRLLDQQNPDEDFS
modifications: biotin (EZ-Link NHS-PEG4-Biotin) where immobilised for SPR
As for B3, the equilibrium dissociation constant (Kd) in assay [4] came out at 2.1 µM.

B4: full length CrkII, dimer (CrkII^FL dimer) (natural protein)
chain: B3 chain
modifications: biotin (EZ-Link NHS-PEG4-Biotin) where immobilised for SPR
Take B4: the affinity in assay [4], expressed as Kd, was 1.4 µM.

B5: CrkII SH2 domain (CrkII^SH2, residues 6–120) (domain or fragment)
chain: DSEERSSWYWGRLSRQEAVALLQGQRHGVFLVRDSSTSPGDYVLSVSENSRVSHYIINSSGPRPPVPPSPAQPPPGVSPSRLRIGDQEFDSLPALLEFYKIHYLDTTTLIEPVSR
modifications: biotin (EZ-Link NHS-PEG4-Biotin) where immobilised for SPR
For the molecule B5, the figures for the Kd in assay [5], in assay [4] and in assay [1] were 12.5 µM, 20.7 µM and 48.5 µM, respectively.
